The target in experiment [1] is T1, Y199K.
T1 construct: also called Y199K mutant Aurora A; Y199K Aurora A hotspot mutant
T1 chain: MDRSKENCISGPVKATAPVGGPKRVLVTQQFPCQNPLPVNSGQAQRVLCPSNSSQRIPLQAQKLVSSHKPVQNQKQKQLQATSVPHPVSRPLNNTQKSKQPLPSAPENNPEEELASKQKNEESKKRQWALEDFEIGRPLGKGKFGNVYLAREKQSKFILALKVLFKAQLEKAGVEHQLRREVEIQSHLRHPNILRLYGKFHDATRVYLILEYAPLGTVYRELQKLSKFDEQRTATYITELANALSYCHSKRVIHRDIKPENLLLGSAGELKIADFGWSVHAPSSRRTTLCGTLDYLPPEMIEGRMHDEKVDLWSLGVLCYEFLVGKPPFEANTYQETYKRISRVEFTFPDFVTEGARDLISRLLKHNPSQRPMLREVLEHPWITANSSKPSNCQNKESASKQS
Briefly: yeast display, single point with Y199K Aurora A, mean fluorescence.

In experiment [2] the target is T2, Aurora A kinase (human, UniProt O14965 122-403, limits assumed).
T2 construct: also called AurA; deP AurA
T2 sequence: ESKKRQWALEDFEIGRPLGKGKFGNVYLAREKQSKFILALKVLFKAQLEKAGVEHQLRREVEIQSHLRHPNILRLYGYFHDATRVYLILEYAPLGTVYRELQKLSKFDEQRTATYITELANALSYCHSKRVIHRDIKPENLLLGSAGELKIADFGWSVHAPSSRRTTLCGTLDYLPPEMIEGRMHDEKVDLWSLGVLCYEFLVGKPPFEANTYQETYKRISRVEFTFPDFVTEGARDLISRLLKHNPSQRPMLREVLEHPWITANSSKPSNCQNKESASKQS
Briefly: isothermal titration calorimetry with dephosphorylated Aurora A (deP AurA). Also on record: dS: unit not given here. A general note: ITC needs no label: the signal is the heat of the interaction.

Experiment [3] deals with T2, Aurora A kinase. The experiment in a line: yeast display titration of the clone with wild type Aurora A, mean fluorescence.
In experiment [4] the target is T2, Aurora A kinase. Briefly: isothermal titration calorimetry; Mb60 alone, not the sGFP fusion (FIG. 6C).
The target of experiment [5] is T2, Aurora A kinase. Briefly: isothermal titration calorimetry with dephosphorylated Aurora A (deP AurA). On the set-up: dS: unit not given here. The source holds these as a separate data set.
The target in experiment [6] is T2, Aurora A kinase. Briefly: isothermal titration calorimetry.
Experiment [7] has as its target T2, Aurora A kinase. Briefly: isothermal titration calorimetry with dephosphorylated Aurora A (deP AurA).
The target in experiment [8] is T3, Y199H.
T3 construct: also called Y199H mutant Aurora A; Y199H Aurora A hotspot mutant
T3 chain: T1 chain with K199H
Briefly: yeast display, single point with Y199H Aurora A, mean fluorescence.

For experiment [9], the target named is T2, Aurora A kinase. The experiment in a line: method not stated; told in the isothermal titration calorimetry paragraph.
Experiment [10] deals with T2, Aurora A kinase. Briefly: isothermal titration calorimetry with dephosphorylated Aurora A (deP AurA). The source holds these as a separate data set.
The target in experiment [11] is T2, Aurora A kinase. The description is as above. This is another data set of the same source.
The target of experiment [12] is T2, Aurora A kinase. The experiment is described as above. The source holds these as a separate data set.

Changes are numbered by the printed parent chain. Like-named read-outs stand apart in the source and are kept apart here.

Broadly, the Kd is the concentration at which binding is half-saturated.

B1: monobody Mb56 (designed binder)
chain: SVSSVPTKLEVVAATPTSLLISWDAMSDWYYWVDYYRITYGETGGNSPVQEFTVPGSYSTATISGLKPGVDYTITVYASDDVWGDYSPISINYRT
notes: Monobody on a fibronectin type III (FN3) scaffold; also called AuroraA_56
Consider B1, for which, in experiment [1], the binding result was “no binding (tested: 2000 (axis unit not printed))”. Besides, in [2], the Kd was found to be 163 nM, the dH was -10.1 kcal/mol, the dS is -29.1 and the n came to 0.94. Moreover, binding in experiment [3] was put at a Kd of 60 nM.

B2: monobody Mb60 (designed binder)
chain: SVSSVPTKLEVVAATPTSLLISWDAPAVTVVHYVITYGETGGNSPVQEFTVPGSKSTATISGLKPGVDYTITVYAIDFYWGSYSPISINYRT
notes: Monobody on a fibronectin type III (FN3) scaffold; also called AuroraA_60
As for B2, the Kd in experiment [4] was ~1000 nM. In addition, in experiment [1], the binding result is “no binding (tested: 2000 (axis unit not printed))”. Moreover, in [5], the Kd was found to be 1200 nM, the dH was -31.9 kcal/mol, the dS was -334 and the n worked out at 0.92. Also, binding in experiment [3] was characterised by a dissociation constant (Kd) of 25 nM.

B3: monobody Mb60 fused to supercharged GFP (designed binder)
chain: B2 chain
notes: also called sGFP-Mb60; not shown: supercharged green fluorescent protein
Consider B3, for which the Kd in [6] was ~9900 nM.

B4: monobody Mb2 (designed binder)
chain: SVSSVPTKLEVVAATPTSLLISWDAFGHQYEPVYYYRITYGETGGNSPVQEFTVPGYYSTATISGLKPGVDYTITVYAWYVDGSYSSPISINYRT
notes: Monobody on a fibronectin type III (FN3) scaffold; also called AuroraA_2
As to B4, in experiment [7], the Kd is 8.7 nM, the dH was -16.1 kcal/mol, the dS was -71.6 J/mol*K and the n stood at 1.02. The binding result in experiment [8] was “no binding (tested: 2000 (axis unit not printed))”. This molecule also gave a Kd in experiment [3] of 16.7 nM.

B5: TPX2 (other)
chain: MSQVKSSYSYDAPSDFINFSSLDDEGDTQNIDSWFEEKANLENKL
notes: also called TPX2 polypeptide
In the case of B5, in experiment [9], binding was put at a Kd of 50000 nM.

B6: monobody Mb44 (designed binder)
chain: SVSSVPTKLEVVAATPTSLLISWDAPAVTVDFYVITYGETGGYSYPWQEFEVPGSKSTATISGLKPGVDYTITVYADYGQYFYSPISINYRT
notes: Monobody on a fibronectin type III (FN3) scaffold; also called AuroraA_44
For B6, in [10], the Kd amounted to 2600 nM, the dH was -13.7 kcal/mol, the dS was -84.9 J/mol*K and the n came to 1.06. The molecule also had a Kd in experiment [3] of 42 nM.

B7: monobody Mb54 (designed binder)
chain: SVSSVPTKLEVVAATPTSLLISWDAQTYQMYDYVSYYRITYGETGGNSPVQEFTVPGYYSTATISGLKPGVDYTITVYAEGYYSSYSPISINYRT
notes: Monobody on a fibronectin type III (FN3) scaffold; also called AuroraA_54
Regarding B7, in experiment [11], the Kd came to 175000 nM, the dH was -24.2 kcal/mol, the dS is -210 J/mol*K and the n was found to be 0.92. For the same molecule, the binding result in experiment [8] is recorded as “no binding (tested: 2000 (axis unit not printed))”. This molecule had an equilibrium dissociation constant (Kd) in experiment [3] of 81 nM.

B8: monobody Mb51 (designed binder)
chain: SVSSVPTKLEVVAATPTSLLISWDAKPMSYEPVYYYRITYGETGGNSPVQEFTVPGYYSTATISGLKPGVDYTITVYADSMSSYYYSPISINYRT
notes: Monobody on a fibronectin type III (FN3) scaffold; also called AuroraA_51
As for B8, the binding result in experiment [1] is reported as “no binding (tested: 2000 (axis unit not printed))”. In addition, in [12], the Kd came out at 27.4 nM, the dH was -9.11 kcal/mol, the dS is -16.9 J/mol*K and the n is 0.93. In experiment [3], the Kd was found to be 6 nM.

The values above are taken from US20180334510A1 (BRANDEIS UNIVERSITY, published 2018).
